Reference: patent US20230303699A1 (EXELIXIS, published 2023)

Tests used:
[1] = molecular target: T1, PD-L1 on PD-L1 overexpressing CHO-K1 cells (Homo sapiens (Human), UniProt Q9NZQ7 19-290); experiment: cell-based or functional assay
[2] = molecular target: T1, PD-L1 on PD-L1 overexpressing CHO-K1 …; experiment: flow cytometry on PD-L1 CHO-K1 cells
Protocol: (§1) Cells were harvested at 70-90% confluence on the day of the assay. Cells were collected by centrifugation at 200×g for 5 minutes and media was removed. Cells were resuspended at 2×10⁶ cells per mL in cold PBS. […] 50 μL per well of the antibody dilution was plated in a 96 well V-bottom plate (Costar 3897). 50 μL per well of cell suspension was added. Plates were placed at 4° C. for 45-60 minutes.
(§2) Cells were collected by centrifugation at 400×g for 7 minutes and primary antibody was removed. […] Plates were placed at 4° C. for 30 minutes.
(§3) Cells were collected by centrifugation at 400×g for 7 minutes and secondary antibody was removed. Cells were resuspended in 50 μL per well of PBS and analyzed by flow cytometry. Binding curves were calculated using the mean fluorescence intensity (MFI) of the FITC fluorescence signal on the cells.

Mouse PD-L1 = molecular target: T2, Mouse PD-L1 (mouse, UniProt Q9EP73 19-238, biotinylated); experiment: Octet BLI; biotinylated mouse PD-L1 on streptavidin sensor
T2 construct: Bought, biotinylated and immobilized on a streptavidin sensor; also called mPD-L1; Acro Cat. No. PD1-M5220
T2 sequence (Q9EP73 19-238 limits assumed): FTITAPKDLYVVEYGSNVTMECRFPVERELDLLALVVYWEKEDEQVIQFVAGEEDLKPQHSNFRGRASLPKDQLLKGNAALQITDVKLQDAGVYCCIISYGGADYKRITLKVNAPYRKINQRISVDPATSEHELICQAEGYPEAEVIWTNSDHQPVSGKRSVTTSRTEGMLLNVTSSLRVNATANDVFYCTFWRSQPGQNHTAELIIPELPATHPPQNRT

[3] = molecular target: T3, human PD-L1-His tag (extracellular domain) (human, UniProt Q9NZQ7 19-238); experiment: Octet BLI, monovalent; IgG on Fc capture sensor, soluble PD-L1-His
T3 construct: Bought from Acro Biosystems; also called Acro Cat. No. PD1H5229; soluble antigen
T3 sequence (Q9NZQ7 19-238): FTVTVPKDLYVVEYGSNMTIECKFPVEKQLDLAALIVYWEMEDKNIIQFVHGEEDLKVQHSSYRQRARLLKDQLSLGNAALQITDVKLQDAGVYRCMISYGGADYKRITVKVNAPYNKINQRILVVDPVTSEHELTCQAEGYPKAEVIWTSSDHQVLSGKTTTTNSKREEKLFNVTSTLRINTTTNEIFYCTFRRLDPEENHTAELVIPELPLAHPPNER
Source text: The bivalent interaction of binders to the biotinylated human PD-L1 (see Example 1) immobilized on a streptavidin biosensor was monitored using an Octet (Pall ForteBio) instrument. To monitor monovalent interaction, full-length IgG molecule was immobilized to a Fc capture biosensor and its interaction with soluble antigen was monitored using an Octet instrument.
First, the antibodies were immobilized on an Fc capture sensor. In the next association step, the binding interaction of PD-L1 (Acro Cat. No. PD1H5229 (PD-L1-His tag)) to the immobilized IgG was measured. […] Octet kinetic analysis software was used to calculate the kinetic and equilibrium binding constants from the rate of association and dissociation curves. The analysis was performed using global curve fit where kinetic constants were derived simultaneously from all analyte concentration included in the experiment.

[4] = molecular target: T1, PD-L1 on PD-L1 overexpressing CHO-K1 …; experiment: cell-based or functional assay; remark: listed apart in the source
[5] = molecular target: T1, PD-L1 on PD-L1 overexpressing CHO-K1 …; experiment: flow cytometry on PD-L1 overexpressing CHO-K1 cells, AF488 goat anti human IgG Fab secondary, MFI
Protocol: as §1, §2, §3

T1 sequence (Q9NZQ7 19-290 limits assumed): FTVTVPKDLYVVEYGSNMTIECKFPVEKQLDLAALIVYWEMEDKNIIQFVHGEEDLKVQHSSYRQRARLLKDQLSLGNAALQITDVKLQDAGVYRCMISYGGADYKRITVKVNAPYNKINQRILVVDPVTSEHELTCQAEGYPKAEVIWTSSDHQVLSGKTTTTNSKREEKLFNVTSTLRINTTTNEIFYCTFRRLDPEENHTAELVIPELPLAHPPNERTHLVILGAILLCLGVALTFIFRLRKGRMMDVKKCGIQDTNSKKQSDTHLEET

Row | PD-1/PD-L1 Interaction Blocking Reporter Assay IC50 [1] [nM] | EC50 [2] [nM] | binding result (Mouse PD-L1) | KD [3] [nM] | Kd [3] [nM] | IC50 (read off the curve) [4] [nM] | EC50 (read off the curve) [5] [nM] | Binder
1 | 2.43 | 0.523 | no binding | < 20 | 17.2 |  |  | antibody designated P22 (antibody, human IgG1, kappa, V domains shown, Tested as full length IgG) VH: EVQLVESGGGLVQPGGSLRLSCAASGFTFSSYYIHWVRQAPGKGLEWVAWITSHGYSTKYADSVKGRFTISADTSKNTAYLQMNSLRAEDTAVYYCARDSVIYGLDYWGQGTLVTAST VL: DIQMTQSPSSLSASVGDRVTITCRASQSVSSAVAWYQQKPGKAPKLLIYSASSLYSGVPSRFSGSRSGTDFTLTISSLQPEDFATYYCQQYYTSPYTFGQGTKVEIKR
2 | 1.23 | 0.552 | no binding | < 20 | 13 | ~2 |  | antibody designated P31.2 (antibody, human IgG1, kappa, V domains shown, Tested as full length IgG) VH: EVQLVESGGGLVQPGGSLRLSCAASGFTFSSYYIHWVRQAPGKGLEWVATISSGGGFTYYADSVKGRFTISADTSKNTAYLQMNSLRAEDTAVYYCARGYTLTPVLDYWGQGTLVTAST VL: DIQMTQSPSSLSASVGDRVTITCRASQSVSSAVAWYQQKPGKAPKLLIYSASSLYSGVPSRFSGSRSGTDFTLTISSLQPEDFATYYCQQFGAEPITFGQGTKVEIKR
3 | 4.98 | 1.62 | no binding | < 20 | 17.5 |  | ~2 | antibody designated P24 (antibody, human IgG1, kappa, V domains shown, Tested as full length IgG) VH: EVQLVESGGGLVQPGGSLRLSCAASGFTFDQYYIHWVRQAPGKGLEWVAEIYPAGSYTYYADSVKGRFTISADTSKNTAYLQMNSLRAEDTAVYYCARGPYSVRYALDYWGQGTLVTAST VL: DIQMTQSPSSLSASVGDRVTITCRASQSVSSAVAWYQQKPGKAPKLLIYSASSLYSGVPSRFSGSRSGTDFTLTISSLQPEDFATYYCQQVSYSPYTFGQGTKVEIKR
